Results: patent US20140017253A1 (ONCOMED PHARMACEUTICALS, published 2014)

Experiments:
[1] = molecular target: T1, human RSPO3 (recombinant, R&D Systems) (human, UniProt Q9BXY4 22-272); assay: SPR (Biacore 2000), antibody captured by goat anti-human IgG on CM5 chip, human RSPO3 injected 300-37.5 nM
T1 sequence: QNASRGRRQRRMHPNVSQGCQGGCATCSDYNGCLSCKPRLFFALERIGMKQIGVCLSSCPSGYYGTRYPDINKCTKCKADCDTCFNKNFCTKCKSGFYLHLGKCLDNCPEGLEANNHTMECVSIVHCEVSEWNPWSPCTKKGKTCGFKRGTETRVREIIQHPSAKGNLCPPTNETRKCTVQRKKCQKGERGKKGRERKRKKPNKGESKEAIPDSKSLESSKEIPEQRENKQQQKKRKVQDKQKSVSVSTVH
Procedure: The method used was different than described in Example 3. A goat anti-human IgG antibody was coupled to a carboxymethyl-dextran (CM5) SPR chip using standard amine-based chemistry (NHS/EDC) and blocked with ethanolamine. Antibodies (purified antibody or culture supernatant) were diluted to a concentration of 10 μg/ml in HBS-P-BSA (0.01M HEPES pH7.4, 0.15M NaCl, 0.005% v/v Polysorbate 20, 100 μg/ml BSA) and captured onto the chip via the anti-human IgG antibody. […] After each antigen injection 5 μl of 100 mM H₃PO₄ was injected to remove the antigen-antibody complex and a subsequent injection performed. Kinetic data were collected over time and were fit using the simultaneous global fit equation to yield affinity constants (KD values) for each antibody (Table 4).

[2] = molecular target: T2, LGR5-Fc fusion protein (human, UniProt O75473 22-564); assay: SPR (Biacore 2000), RSPO-Fc amine-coupled to CM5 chip, soluble LGR5-Fc injected 100-0.78 nM
T2 construct: range 22-564; Expressed in insect cells with baculovirus, purified on protein A; also called soluble LGR5-Fc; not shown: human Fc
T2 sequence (looked up): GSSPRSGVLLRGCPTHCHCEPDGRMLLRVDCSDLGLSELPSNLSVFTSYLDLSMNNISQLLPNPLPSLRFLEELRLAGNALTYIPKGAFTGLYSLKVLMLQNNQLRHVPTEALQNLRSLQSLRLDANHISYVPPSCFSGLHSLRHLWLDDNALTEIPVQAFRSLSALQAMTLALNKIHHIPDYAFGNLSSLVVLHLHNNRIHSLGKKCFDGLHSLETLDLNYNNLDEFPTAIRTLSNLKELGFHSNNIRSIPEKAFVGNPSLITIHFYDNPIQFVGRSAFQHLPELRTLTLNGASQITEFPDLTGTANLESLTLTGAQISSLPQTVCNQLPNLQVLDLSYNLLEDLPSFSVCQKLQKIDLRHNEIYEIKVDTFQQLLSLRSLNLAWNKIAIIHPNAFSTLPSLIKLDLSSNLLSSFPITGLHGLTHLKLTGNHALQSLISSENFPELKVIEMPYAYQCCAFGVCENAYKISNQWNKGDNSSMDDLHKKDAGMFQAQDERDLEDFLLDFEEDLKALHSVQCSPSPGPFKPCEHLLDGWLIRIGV
Procedure: Binding affinities between RSPO proteins and LGR5 were analyzed by surface plasmon resonance. A soluble LGR5-Fc construct was generated using standard recombinant DNA techniques. Specifically, amino acids 1-564 of human LGR5 were ligated in frame to human Fc and the recombinant LGR5-Fc fusion protein was expressed in insect cells using baculovirus. The LGR5-Fc fusion protein was purified from the insect medium using protein A chromatography. Cleavage of the LGR5 signal sequence results in a mature LGR5-Fc fusion protein containing amino acids 22-564 of LGR5. […] Two-fold dilutions of soluble LGR5-Fc were injected over the chip surface (100 nM to 0.78 nM). Kinetic data were collected over time using a Biacore 2000 system from Biacore Life Sciences (GE Healthcare) and the data were fit using the simultaneous global fit equation to yield affinity constants (KD values) for each RSPO protein (Table 3).

[3] = molecular target: T3, recombinant human RSPO3 protein, biotinylated (human, UniProt Q9BXY4 22-272, biotinylated (sites not given)); assay: SPR (Biacore 2000), biotinylated human RSPO3 captured on streptavidin chip, antibody injected 100-0.78 nM
T3 sequence: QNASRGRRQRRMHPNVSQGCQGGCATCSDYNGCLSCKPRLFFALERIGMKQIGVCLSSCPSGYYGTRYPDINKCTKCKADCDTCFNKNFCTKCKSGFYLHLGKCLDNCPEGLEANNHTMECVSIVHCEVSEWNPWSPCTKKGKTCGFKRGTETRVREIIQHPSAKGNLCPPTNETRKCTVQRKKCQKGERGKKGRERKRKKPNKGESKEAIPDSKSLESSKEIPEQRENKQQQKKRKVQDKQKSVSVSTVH
Procedure: The antibodies were serially diluted 2-fold from 100 nM to 0.78 nM in HBS-P (0.01M HEPES pH 7.4, 0.15M NaCl, 0.005% v/v Surfactant P20) and were injected over the chip surface. Kinetic data were collected over time and were fit using the simultaneous global fit equation to yield affinity constants (KD values) for each antibody.

| Binder | Kd [1] | Kd [2] | Kd [3] |
| --- | --- | --- | --- |
| humanized anti-RSPO3 antibody h131R007 (antibody, human IgG2, kappa, IgG2; also called h131R005/131R007; h131R005) heavy: QVQLVQSGAEVKKPGASVKVSCKASGYTFTDYSIHWVRQAPGQGLEWIGYIYPSNGDSGYNQKFKNRVTMTRDTSTSTAYMELSRLRSEDTAVYYCATYFANNFDYWGQGTTLTVSSASTKGPSVFPLAPCSRSTSESTAALGCLVKDYFPEPVTVSWNSGALTSGVHTFPAVLQSSGLYSLSSVVTVPSSNFGTQTYTCNVDHKPSNTKVDKTVERKCCVECPPCPAPPVAGPSVFLFPPKPKDTLMISRTPEVTCVVVDVSHEDPEVQFNWYVDGVEVHNAKTKPREEQFNSTFRVVSVLTVVHQDWLNGKEYKCKVSNKGLPAPIEKTISKTKGQPREPQVYTLPPSREEMTKNQVSLTCLVKGFYPSDIAVEWESNGQPENNYKTTPPMLDSDGSFFLYSKLTVDKSRWQQGNVFSCSVMHEALHNHYTQKSLSLSPGK light: not shown | 0.654 nM | – | – |
| RSPO1-Fc fusion protein (Fc fusion, not shown: human Fc region) SRGIKGKRQRRISAEGSQACAKGCELCSEVNGCLKCSPKLFILLERNDIRQVGVCLPSCPPGYFDARNPDMNKCIKCKIEHCEACFSHNFCTKCKEGLYLHKGRCYPACPEGSSAANGTMECSSPAQCEMSEWSPWGPCSKKQQLCGFRRGSEERTRRVLHAPVGDHAACSDTKETRRCTVRRVPCPEGQKRRKGGQGRRENANRNLARKESKEAGAGSRRRKGQQQQQQQGTVGPLTSAGPA | – | 110 nM | – |
| humanized anti-RSPO3 antibody h131R011 (antibody, human IgG2, kappa, V domains shown, IgG2; also called h131R011 (IgG2)) VH: QVQLVQSGAEVKKPGASVKVSCKASGYTFTDYSIHWVRQAPGQGLEWIGYIYPSNGDSGYNQKFKNRVTMTRDTSTSTAYMELSRLRSEDTAVYYCATYFANNFDYWGQGTTLTVSS VL: DIQMTQSPSSLSASVGDRVTITCKASQSVDYDGDSYMNWYQQKPGKAPKLLIYAASNLESGVPSRFSGSGSGTDFTLTISPVQAEDFATYYCQQSNEDPLTFGAGTKLELKR | 0.686 nM | – | – |
| RSPO2-Fc fusion protein (Fc fusion, Full-length human RSPO2 ligated in-frame to a human Fc region, expressed in insect cells; not shown: human Fc region) QGNRWRRSKRASYVSNPICKGCLSCSKDNGCSRCQQKLFFFLRREGMRQYGECLHSCPSGYYGHRAPDMNRCARCRIENCDSCFSKDFCTKCKVGFYLHRGRCFDECPDGFAPLEETMECVEGCEVGHWSEWGTCSRNNRTCGFKWGLETRTRQIVKKPVKDTIPCPTIAESRRCKMTMRHCPGGKRTPKAKEKRNKKKKRKLIERAQEQHSVFLATDRANQ | – | 14 nM | – |
| RSPO4-Fc fusion protein (Fc fusion, not shown: a dimerising Fc or GST; small tags and cut ends, Full-length human RSPO4 ligated in-frame to a human Fc region, expressed in insect cells) NRRKKQVGTGLGGNCTGCIICSEENGCSTCQQRLFLFIRREGIRQYGKCLHDCPPGYFGIRGQEVNRCKKCGATCESCFSQDFCIRCKRQFYLYKGKCLPTCPPGTLAHQNTRECQGECELGPWGGWSPCTHNGKTCGSAWGLESRVREAGRAGHEEAATCQVLSESRKCPIQRPCPGERSPGQKKGRKDRRPRKDRKLDRRLDVRPRQPGLQP | – | 73 nM | – |
| anti-RSPO3 antibody 131R003 (antibody, human IgG2, kappa, V domains shown, Same light chain as 131R002; also called parental 131R003; 131R003 (IgG2)) VH: QVQLKQSGPELVKPGASVKISCKASGYTFTDYSIHWVKQNHGKSLDWIGYIYPSNGDSGYNQKFKNRATLTVDTSYSTAYLEVRRLTFEDSAVYYCATYFANYFDYWGQGTTLTVSS VL: DIVLTQSPASLAVSLGQRATISCKASQSVDYDGDSYMNWYQQKPGQPPKLLIYAASNLESGIPARFSGSGSGTDFTLNIHPVEEEDAATYYCQQSNEDPLTFGAGTKLELKR | 1.9 nM | – | 7.3 nM |
| 131R003CDR3 variant (antibody, human IgG2, kappa, V domains shown, also called 131R003 CDR3 variant (IgG2); 131R003 Heavy chain - Variant 1) VH: QVQLKQSGPELVKPGASVKISCKASGYTFTDYSIHWVKQNHGKSLDWIGYIYPSNGDSGYNQKFKNRATLTVDTSYSTAYLEVRRLTFEDSAVYYCATYFANNFDYWGQGTTLTVSS VL: DIVLTQSPASLAVSLGQRATISCKASQSVDYDGDSYMNWYQQKPGQPPKLLIYAASNLESGIPARFSGSGSGTDFTLNIHPVEEEDAATYYCQQSNEDPLTFGAGTKLELKR | 1.7 nM | – | – |
| anti-RSPO3 antibody 131R002 (antibody, human IgG2, kappa, V domains shown, Same light chain as 131R003; also called 131R002 (IgG2)) VH: QVQLQESGPELVKPGASVKISCKASGYTFTDYSIHWVKQNHGKSLDWIGYIYPSNGDSGYNQKFKNRATLTVDTSSSTAYLEVRRLTFEDSAVYYCATYFANYFDYWGQGTTLTVSS VL: DIVLTQSPASLAVSLGQRATISCKASQSVDYDGDSYMNWYQQKPGQPPKLLIYAASNLESGIPARFSGSGSGTDFTLNIHPVEEEDAATYYCQQSNEDPLTFGAGTKLELKR | 1.3 nM | – | 8.2 nM |
| RSPO3-Fc fusion protein (Fc fusion, Full-length human RSPO3 ligated in-frame to a human Fc region, expressed in insect cells; not shown: human Fc region) QNASRGRRQRRMHPNVSQGCQGGCATCSDYNGCLSCKPRLFFALERIGMKQIGVCLSSCPSGYYGTRYPDINKCTKCKADCDTCFNKNFCTKCKSGFYLHLGKCLDNCPEGLEANNHTMECVSIVHCEVSEWNPWSPCTKKGKTCGFKRGTETRVREIIQHPSAKGNLCPPTNETRKCTVQRKKCQKGERGKKGRERKRKKPNKGESKEAIPDSKSLESSKEIPEQRENKQQQKKRKVQDKQKSVSVSTVH | – | < 1 nM | – |
